These results are taken from publication PMC3145792.

pKd: −log10 of the molar value. Where “and” joins values, the source holds several entries; their conditions need not be identical. Equal entries are not always repeated.

The experiment deals with SECRET domain (smallpox virus-encoded chemokine receptor domain) of the vTNFR CrmD encoded by ectrom (ectromelia virus). The experiment in a line: SPR. Background: Surface plasmon resonance follows binding to a sensor surface in real time, without labels.
As usually defined, the pKd is the Kd on a negative log10 scale, so that one unit is a factor of ten. A lower pKd goes with a large Kd. For the substance “chemokine domain of human CX3CL1 (residues 1-76), mutant F49A (from UniProt P78423 25-100) (domain or fragment)”, the pKd was 5.43 and 5.33 and 5.38.
In general, koff refers to the rate constant with which the complex falls apart. Read a low koff as a long-lived complex. In general, kon refers to a measure of how fast the partners come together. A lower kon goes with slow association. On to “chemokine domain of human CX3CL1 (residues 1-76), mutant I19A (from UniProt P78423 25-100) (domain or fragment)”, for which the pKd is 5.89 and 6.19 and 6.02; the koff is 0.00689 s⁻¹ and 0.00578 s⁻¹; the kon was 5380 M⁻¹ s⁻¹ and 9020 M⁻¹ s⁻¹.
With “chemokine domain of human CX3CL1 (residues 1-76), mutant K18A (from UniProt P78423 25-100) (domain or fragment)”, the pKd is 4.96 and 4.94 and 4.99; the koff is 0.0103 s⁻¹ and 0.00518 s⁻¹; the kon is 1000 M⁻¹ s⁻¹ and 450 M⁻¹ s⁻¹.
As for “chemokine domain of human CX3CL1 (residues 1-76), mutant L23A (from UniProt P78423 25-100) (domain or fragment)”, the pKd was 5.47 and 5.25 and 5.35.
On the same count and under the same terms, next, “chemokine domain of human CX3CL1 (residues 1-76), mutant R44A (from UniProt P78423 25-100) (domain or fragment)”: 4.80 and 4.78 and 4.79.
The same measure, in the same setting: next, “chemokine domain of human CX3CL1 (residues 1-76), mutant R47A (from UniProt P78423 25-100) (domain or fragment)”: 4.46 and 4.42 and 4.44.
